According to patent publication US20240132578A1:

How the values were obtained:
[1] = biological target: HIV-1 JR-CSF Env N355A (HIV-1 isolate JR-CSF) (UniProt P20871); assay: cell-based or functional assay
[2] = biological target: HIV-1 JR-CSF Env T341A (HIV-1 isolate JR-CSF) (UniProt P20871); assay: cell-based or functional assay
[3] = biological target: HIV-1 JR-CSF Env I309A (HIV-1 (isolate JR-CSF, clade B)) (UniProt P20871); assay: cell-based or functional assay
[4] = biological target: HIV-1 JR-CSF Env R327A (HIV-1 isolate JR-CSF) (UniProt P20871); assay: cell-based or functional assay
[5] = biological target: HIV-1 JR-CSF Env Q337A (HIV-1 isolate JR-CSF) (UniProt P20871); assay: cell-based or functional assay
[6] = biological target: HIV-1 JR-CSF Env N295A (HIV-1 (isolate JR-CSF, clade B)) (UniProt P20871); assay: cell-based or functional assay
[7] = biological target: HIV-1 JR-CSF Env F317A (HIV-1 (isolate JR-CSF, clade B)) (UniProt P20871); assay: cell-based or functional assay
[8] = biological target: HIV-1 JR-CSF Env I323A (HIV-1 (isolate JR-CSF, clade B)) (UniProt P20871); assay: cell-based or functional assay
[9] = biological target: HIV-1 envelope glycoprotein (Env) of isolate MG RM-A-002, subtype A (HIV-1); assay: cell-based or functional assay
[10] = biological target: HIV-1 envelope glycoprotein (Env) of isolate MGRM-Chronic-B-010, on pseudovirus (HIV-1); assay: cell-based or functional assay
[11] = biological target: HIV-1 MGRM-D-001 Env (HIV-1); assay: cell-based or functional assay
HIV-1 APV17 Env (HIV-1) = assay: cell-based or functional assay
[12] = biological target: HIV-1 JR-CSF Env N332A (HIV-1 isolate JR-CSF) (UniProt P20871); assay: cell-based or functional assay
HIV-1 JRFL Env (HIV-1) = assay: cell-based or functional assay
[13] = biological target: HIV-1 MGRM-AG-005 Env (HIV-1); assay: cell-based or functional assay
[14] = biological target: HIV-1 envelope glycoprotein (Env) of isolate 94UG103 (HIV-1); assay: cell-based or functional assay
[15] = biological target: HIV-1 envelope glycoprotein (Env) of isolate 92BR020, on pseudovirus (HIV-1); assay: cell-based or functional assay
[16] = biological target: JR-FL GP120 ΔV3 (HIV-1 JR-FL); assay: ELISA, antigen-coated wells, mAb titrated; EC50 by nonlinear regression
[17] = biological target: HIV-1 93IN905 envelope glycoprotein (Env) on pseudovirus (HIV-1); assay: cell-based or functional assay
[18] = biological target: HIV-1 MGRM-C-027 envelope glycoprotein (Env) on pseudovirus (HIV-1); assay: cell-based or functional assay
[19] = biological target: HIV-1 MGRM-C-026 envelope glycoprotein (Env) on pseudovirus (HIV-1); assay: cell-based or functional assay
[20] = biological target: HIV-1 APV17 envelope glycoprotein (Env) on pseudovirus (HIV-1); assay: cell-based or functional assay
[21] = biological target: HIV-1 CMU02 envelope glycoprotein (Env) on pseudovirus (HIV-1); assay: cell-based or functional assay
[22] = biological target: HIV-1 93UG077 envelope glycoprotein (Env) on pseudovirus (HIV-1); assay: cell-based or functional assay
[23] = biological target: HIV-1 MGRM-A-010 envelope glycoprotein (Env) on pseudovirus (HIV-1); assay: cell-based or functional assay
[24] = biological target: HIV-1 APV6 envelope glycoprotein (Env) on pseudovirus (HIV-1); assay: cell-based or functional assay
[25] = biological target: HIV-1 MGRM-AG-005 envelope glycoprotein (Env) on pseudovirus (HIV-1); assay: cell-based or functional assay
[26] = biological target: HIV-1 MGRM-C-028 envelope glycoprotein (Env) on pseudovirus (HIV-1); assay: cell-based or functional assay
[27] = biological target: aMLV envelope protein on pseudovirus (negative control virus); assay: cell-based or functional assay
[28] = biological target: aMLV envelope (negative control); assay: cell-based or functional assay
[29] = biological target: HIV-1 Env of isolate 92UG005 (Clade D) (HIV-1); assay: cell-based or functional assay
[30] = biological target: HIV-1 Env of isolate 93UG077 (Clade A) (HIV-1); assay: cell-based or functional assay
[31] = biological target: HIV-1 Env of isolate 92UG024 (Clade D) (HIV-1); assay: cell-based or functional assay
[32] = biological target: HIV-1 Env of isolate NL43 (positive control) (HIV-1); assay: cell-based or functional assay
[33] = biological target: HIV-1 Env of isolate APV-6 (Clade B) (HIV-1); assay: cell-based or functional assay
[34] = biological target: HIV-1 Env of isolate IAVI-C18 (Clade C) (HIV-1); assay: cell-based or functional assay
[35] = biological target: HIV-1 Env of isolate 92BR020 (Clade B) (HIV-1); assay: cell-based or functional assay

Substance | IC50, pseudovirus neutralization [17] [µg/mL] | IC50, pseudovirus neutralization [18] [µg/mL] | IC50, pseudovirus neutralization [19] [µg/mL] | IC50, pseudovirus neutralization [20] [µg/mL] | IC50, pseudovirus neutralization [21] [µg/mL] | IC50, pseudovirus neutralization [22] [µg/mL] | IC50, pseudovirus neutralization [23] [µg/mL] | IC50, pseudovirus neutralization [24] [µg/mL] | IC50, pseudovirus neutralization [25] [µg/mL] | IC50, pseudovirus neutralization [26] [µg/mL] | IC50, pseudovirus neutralization [27] [µg/mL] | also measured
5136_H01 (PGT-131) (antibody) |  |  |  |  |  |  |  |  |  |  |  | Fold IC50 increase relative to wild-type [1]: 2.3 fold; Fold IC50 increase relative to wild-type [2]: 1.3 fold; Fold IC50 increase relative to wild-type [3]: 8.8 fold; Fold IC50 increase relative to wild-type [4]: 19 fold; Fold IC50 increase relative to wild-type [5]: 1.3 fold; Fold IC50 increase relative to wild-type [6]: 2.1 fold; Fold IC50 increase relative to wild-type [7]: 96 fold; Fold IC50 increase relative to wild-type [8]: 38 fold
5141_B17 (PGT-126) (antibody) |  |  |  |  |  |  |  |  |  |  |  | IC50, pseudovirus neutralization [9]: 0.015 µg/mL; IC50, pseudovirus neutralization [10]: 0.005 µg/mL; IC50, pseudovirus neutralization [11]: 0.0639 µg/mL; Fold IC50 increase relative to wild-type [1]: 0.2 fold; IC50, pseudovirus neutralization (HIV-1 APV17 Env (HIV-1)): 0.501 µg/mL; Fold IC50 increase relative to wild-type [4]: 2.2 fold; Fold IC50 increase relative to wild-type [12]: 181 fold; IC50, pseudovirus neutralization (HIV-1 JRFL Env (HIV-1)): 0.014 µg/mL; IC50, pseudovirus neutralization [13]: 1.35 µg/mL; Neutralization IC80 [14]: 0.0316 µg/mL; Neutralization IC90 [14]: 0.0655 µg/mL; Neutralization IC95 [14]: 0.128 µg/mL; neutralization IC50 [14]: 0.0091 µg/mL; Fold IC50 increase relative to wild-type [5]: 0.4 fold; IC50, pseudovirus neutralization [15]: 0.015 µg/mL
5147_N06 (PGT-130) (antibody) |  |  |  |  |  |  |  |  |  |  |  | IC50, pseudovirus neutralization [11]: > 10 µg/mL; Fold IC50 increase relative to wild-type [3]: > 77.9 fold; IC50, pseudovirus neutralization (HIV-1 APV17 Env (HIV-1)): > 10 µg/mL; IC50, pseudovirus neutralization (HIV-1 JRFL Env (HIV-1)): 0.0346 µg/mL; IC50, pseudovirus neutralization [13]: 0.947 µg/mL; Fold IC50 increase relative to wild-type [6]: 0.7 fold; Fold IC50 increase relative to wild-type [7]: 17 fold
5329_C19 (PGT-136) (antibody) |  |  |  |  |  |  |  |  |  |  |  | EC50 [16]: 0.1 µg/mL
5345_I01 (PGT-137) (antibody) |  |  |  |  |  |  |  |  |  |  |  | EC50 [16]: 0.1 µg/mL
PGT-141 (4964_G22; 4993_K13) (antibody) | 0.0016 | 0.822 | > 10 | 0.616 | > 10 | > 10 | 0.0563 | 5.08 | 0.392 | 2.35 | > 10 | 
PGT-142 (4995_E20) (antibody) | 0.0017 | 0.272 | > 10 | 0.393 | > 10 | > 10 | 0.0578 | 5.42 | 0.22 | 1.23 | > 10 | 
PGT-143 (4980_N08) (antibody) | 0.0021 | 0.505 | > 10 | 0.618 | > 10 | > 10 | 0.0657 | 4.43 | 0.244 | 1.82 | > 10 | 
PGT-144 (4970_K22) (antibody) | 0.158 | > 10 | > 10 | 5.12 | > 10 | > 10 | 4.02 | > 10 | > 10 | > 10 | > 10 | 
PGV04 (antibody) |  |  |  |  |  |  |  |  |  |  |  | IC50 [14]: 0.202 µg/mL
b12 (antibody) |  |  |  |  |  |  |  |  |  |  |  | IC90 (neutralization of pseudovirus) [28]: > 50 µg/mL; IC90 (neutralization of pseudovirus) [29]: > 50 µg/mL; IC90 (neutralization of pseudovirus) [30]: > 50 µg/mL; IC90 (neutralization of pseudovirus) [31]: > 50 µg/mL; IC90 (neutralization of pseudovirus) [32]: 0.28 µg/mL; IC90 (neutralization of pseudovirus) [33]: > 50 µg/mL; IC90 (neutralization of pseudovirus) [34]: > 50 µg/mL; IC90 (neutralization of pseudovirus) [35]: > 50 µg/mL
